In patent US20080242590:

Target: amyloid β peptide 1-40 (human)

B1: Recombinant Human Neprilysin (R&D Systems) (protein)
chain: YDDGICKSSDCIKSAARLIQNMDATTEPCTDFFKYACGGWLKRNVIPETSSRYGNFDILRDELEVVLKDVLQEPKTEDIVAVQKAKALYRSCINESAIDSRGGEPLLKLLPDIYGWPVATENWEQKYGASWTAEKAIAQLNSKYGKKVLINLFVGTDDKNSVNHVIHIDQPRLGLPSRDYYECTGIYKEACTAYVDFMISVARLIRQEERLPIDENQLALEMNKVMELEKEIANATAKPEDRNDPMLLYNKMTLAQIQNNFSLEINGKPFSWLNFTNEIMSTVNISITNEEDVVVYAPEYLTKLKPILTKYSARDLQNLMSWRFIMDLVSSLSRTYKESRNAFRKALYGTTSETATWRRCANYVNGNMENAVGRLYVEAAFAGESKHVVEDLIAQIREVFIQTLDDLTWMDAETKKRAEEKALAIKERIGYPDDIVSNDNKLNNEYLELNYKEDEYFENIIQNLKFSQSKQLKKLREKVDKDEWISGAAVVNAFYSSGRNQIVFPAGILQPPFFSAQQSNSLNYGGIGMVIGHEITHGFDDNGRNFNKDGDLVDWWTQQSASNFKEQSQCMVYQYGNFSWDLAGGQHLNGINTLGENIADNGGLGQAYRAYQNYIKKNGEEKLLPGLDLNHKQLFFLNFAQVWCGTYRPEYAVNSIKTDVHSPGNFRIIGTLQNSAEFSEAFHCRKNSYMNPEKKCRVW
- Amyloid β 1-40 peptide degradation (remaining peptide by Gyrolab immunoassay), enzyme 2.4 µg/ml, 300 nM peptide, 2.5 h at 37 °C in buffer: degraded 64% of Amyloid β 1-40 peptide (300 nM)
- degradation of Aβ40 in human plasma compared to vehicle (ELISA), 5 µg/ml, 4 h at 37 °C: degraded Aβ40 with 33% and 70%, respectively
